Laboratory results from paper PMC548379.

Molecular target: NF-kB p50 (rhNF-kB p50) (Homo sapiens, UniProt P19838 1-433)
Test: competition

Sequence of NF-kB p50 (rhNF-kB p50) (P19838 1-433): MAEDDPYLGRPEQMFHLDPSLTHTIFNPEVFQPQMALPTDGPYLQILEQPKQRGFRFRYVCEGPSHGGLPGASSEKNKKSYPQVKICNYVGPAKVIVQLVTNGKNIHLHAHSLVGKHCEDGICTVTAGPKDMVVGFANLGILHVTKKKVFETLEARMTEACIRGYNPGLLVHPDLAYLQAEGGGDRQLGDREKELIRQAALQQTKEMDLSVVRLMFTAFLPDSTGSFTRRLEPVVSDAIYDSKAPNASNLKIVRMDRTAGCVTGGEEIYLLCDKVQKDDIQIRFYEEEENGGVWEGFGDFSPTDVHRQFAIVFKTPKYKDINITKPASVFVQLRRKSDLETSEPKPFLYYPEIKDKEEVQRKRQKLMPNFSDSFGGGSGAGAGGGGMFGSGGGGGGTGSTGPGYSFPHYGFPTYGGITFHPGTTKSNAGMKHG

B1: cold NF-kB specific competition probe (dsDNA)
DNA 1: AGTTGAGGGGACTTTCCCAGGCTTTTT
DNA 2: GCCTGGGAAAGTCCCCTCAACTTTTTT
B1: binds.

B2: cold NF-kB nonspecific competition probe (dsDNA)
DNA 1: AGTTGAGATTACTTTCACCAGGCTTTTT
DNA 2: GCCTGTGAAAGTAATCTCAACTTTTTT
B2: no binding.
